Data from patent US20120264921A1.
Blank lines part the entries; values can stand above or below the binder they belong to.

Target: hepatitis B virus surface antigen (HBsAg) (Hepatitis B virus)
Assay: competitive ELISA: plate-coated HBsAg, soluble HBsAg as competitor, purified IgG

fold lower affinity than HB48-35: 1.3 fold
B1: human antibody HB48-59 (antibody, V domains shown)
VH: QVQLVQSGGEVKKPGALMKVSCKASGYIFTSYGISWVRQAPGQGLEWIGWINTYSGHTNYARKFRGRVTMTWDTSTSTAYMELSSLRSDDTAVYYCARVPTWGIDYWGQGTLVTVSS
VL: DIVMTQTPLSLPVTPGEPASISCRSSQSLLHSNGYNYLDWYLQKPGQSPQLLIYLGSKRASGVPDRFSGSGSGTDFTLQISRVEAEDVGVYYCMQSTQFPPYTFGQGTKLEIKR

fold lower affinity than HB48-35: 4 fold
B2: human antibody HB48-33 (antibody, V domains shown)
VH: B1 VH
VL: QAGLTQPPSVSVAPGKTARITCGGDNIGRKSVHWYQQKTGQAPVLVVYEDNKRPSGIPERFSGSNSGNTATLTISGTQAMDEADYYCQAWDSSTVVFGGGTKLTVLG
